Reference: patent US20110300131A1

T1: CD70 expressed by cancer cell lines and tumor tissues (786-O, SK-OV-3/SKOV-3, Caki-1, PANC-1 and others) (UniProt P32970)
T1 sequence (looked up): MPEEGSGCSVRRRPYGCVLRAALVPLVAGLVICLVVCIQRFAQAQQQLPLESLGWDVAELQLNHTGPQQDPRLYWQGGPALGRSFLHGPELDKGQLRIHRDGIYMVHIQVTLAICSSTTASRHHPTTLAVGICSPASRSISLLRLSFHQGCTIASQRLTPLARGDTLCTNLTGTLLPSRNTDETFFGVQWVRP

B1: h1F6vc-MMAF(4) (antibody, INN chains, looked up, V domains shown)
VH: QVQLVQSGAEVKKPGASVKVSCKASGYTFTNYGMNWVRQAPGQGLKWMGWINTYTGEPTYADAFKGRVTMTRDTSISTAYMELSRLRSDDTAVYYCARDYGDYGMDYWGQGTTVTVSS
VL: DIVMTQSPDSLAVSLGERATINCRASKSVSTSGYSFMHWYQQKPGQPPKLLIYLASNLESGVPDRFSGSGSGTDFTLTISSLQAEDVAVYYCQHSREVPWTFGQGTKVEIK
modifications: vc-MMAF, 4 drugs per antibody
B2: h1F6vc-MMAE(4) (antibody, INN chains, looked up, V domains shown)
VH: QVQLVQSGAEVKKPGASVKVSCKASGYTFTNYGMNWVRQAPGQGLKWMGWINTYTGEPTYADAFKGRVTMTRDTSISTAYMELSRLRSDDTAVYYCARDYGDYGMDYWGQGTTVTVSS
VL: DIVMTQSPDSLAVSLGERATINCRASKSVSTSGYSFMHWYQQKPGQPPKLLIYLASNLESGVPDRFSGSGSGTDFTLTISSLQAEDVAVYYCQHSREVPWTFGQGTKVEIK
modifications: vc-MMAE, 4 drugs per antibody
B3: h1F6mc-MMAF(8) (antibody, INN chains, looked up, V domains shown)
VH: QVQLVQSGAEVKKPGASVKVSCKASGYTFTNYGMNWVRQAPGQGLKWMGWINTYTGEPTYADAFKGRVTMTRDTSISTAYMELSRLRSDDTAVYYCARDYGDYGMDYWGQGTTVTVSS
VL: DIVMTQSPDSLAVSLGERATINCRASKSVSTSGYSFMHWYQQKPGQPPKLLIYLASNLESGVPDRFSGSGSGTDFTLTISSLQAEDVAVYYCQHSREVPWTFGQGTKVEIK
modifications: mc-MMAF, 8 drugs per antibody

target: T1, CD70 expressed by cancer cell lines and tumor tissues (786-O, SK-OV-3/SKOV-3, Caki-1, PANC-1 and others); assay: cell-based or functional assay

In order of rising IC50, viability of SKOV-3 cells after 96 hours (Promega CelltiterGlo):
1. B1  0.005 µg/mL
2. B3  0.012 µg/mL
3. h1F6mc-MMAF(4) (antibody)  0.029 µg/mL
4. B2  0.06 µg/mL
